# Patent publication US20250051407A1, “De novo designed sequence-specific DNA binding proteins” (University of Washington, priority 2023, published 2025)
# Test system: synthetic promoter containing the designed DBP binding sites controlling YFP
# Test: Transcriptional repression assay (NOT gate, YFP) in E. coli
# Type: cell-based, Escherichia coli
# Conditions: IPTG induction (1 mM), flow cytometry
# Excerpt: We next tested the ability of the designed DBPs to function in cells to regulate transcription. We constructed candidate NOT gates (38) to assay transcriptional repression in Escherichia coli, where the input is a designed DBP under control of the IPTG-inducible PTac promoter and the output is yellow fluorescent protein (YFP) expression driven by a promoter incorporating each DBP's DNA binding site. […] To increase avidity and bulk, we fused the DBPs to the homodimerization domain of the TetR protein (39), using RFdiffusion (40) and ProteinMPNN sequence design to generate rigid linkers that orient the DBP domain of each dimer unit on a DNA target containing two palindromic binding sites. For DBPs 48, 69, and 57, we selected 96 TetR fusions for experimental characterization in the NOT gate circuit. Upon initial screening, we observed modest repression for several designs and selected two for further validation (one incorporating DBP48, the other DBP57) (FIG. 8). […]
molecule,measurement,value
"DBP48: designed DNA-binding protein, SEQ ID NO: 22, DNA target D (protein) MTPEEIAEAKRIGKEVKERRKELGLTQRELAEKLGVSRSTVSDIENGRRLPSEELLKKIKEILGV",Fold repression of YFP by single DBP domains and tandem linked DBP domains,not observed
